Reference: US20120141504A1 (MAYO FOUNDATION FOR MEDICAL EDUCATION AND RESEARCH, published 2012)

Molecular target: T1, human B7-H3.1 expressed on 293 cells transfected with pcDNA/B7-H3 (human, UniProt Q5ZPR3 29-534)
T1 sequence: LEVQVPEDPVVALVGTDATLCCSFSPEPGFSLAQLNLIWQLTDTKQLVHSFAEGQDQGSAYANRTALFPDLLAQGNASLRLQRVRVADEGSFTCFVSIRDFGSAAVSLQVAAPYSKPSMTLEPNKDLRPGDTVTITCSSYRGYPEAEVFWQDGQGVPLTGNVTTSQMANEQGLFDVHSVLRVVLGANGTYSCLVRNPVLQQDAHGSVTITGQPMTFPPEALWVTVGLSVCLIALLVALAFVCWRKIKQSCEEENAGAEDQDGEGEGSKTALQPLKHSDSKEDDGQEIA
Assay: flow cytometry on transfected 293 cells
Method: After a 45 min incubation, cells were washed and cultured for 45 min with fluorescein isothiocyanate (FITC)-conjugated goat anti-mouse Ig F(ab′)₂ (BioSource, Camarillo, Calif.). For two color staining, cells were washed and further incubated with phycoerythrin (PE)-conjugated mAb specific for CD3, CD14, or CD19 (PharMingen, San Diego, Calif.). For the analysis of CD3+, CD19+, and CD 14+ cells, peripheral blood mononuclear cells (PBMC) (untreated or activated as described below) were stained with anti-B3-H7 antiserum (green fluorescence) and either anti-CD3, anti-CD19, or anti-CD14 monoclonal antibody (mAb) (orange fluorescence). The proportion of B7-H3 expressing cells (green fluorescence) within the CD3+, the CD19+, and the CD 14+ populations was assessed by gating the flow cytometer on the relevant populations (orange fluorescence). Expression of a B7-H3 counter-receptor was analyzed by incubation of cells with B7-H3Ig (5 μg/sample) with subsequent staining using FITC-conjugated goat anti-mouse Ig F(ab′)₂. Single or double stained cells were analyzed using the Becton Dickinson FACScan (Mountain View, Calif.).

binding result: no binding (tested: 5 µg/sample)
B1: ICOSIg fusion protein (Fc fusion, UniProt Q9Y6W8 21-140, looked up)
chain: EINGSANYEMFIFHNGGVQILCKYPDIVQQFKMQLLKGGQILCDLTKTKGSGNTVSIKSLKFCHSQLSNNSVSFFLYNLDHSHANYYFCNLSIFDPPPFKVTLTGGYLHIYESQLCCQLK
notes: extracellular domain; Described as an analogous fusion protein prepared by a method similar to that for B7-H3Ig (extracellular domain fused to mouse IgG2a Fc); not shown: Fc constant region of mouse IgG2a
